Here are results for twelve molecules from patent publication US20180258152.

The term IC50 denotes the midpoint of a concentration-inhibition curve. As usually defined, the Ki is a dissociation constant, usually derived from enzyme kinetics or from competition with a known ligand. Lower therefore signals tighter binding.

Where two headings read alike, the source gives them in different places. No end group written: not given here.

What all share (conditions): modification not given
The target in experiment [1] is T1, human GIP receptor (GIPR) (human), P48546.
T1 chain: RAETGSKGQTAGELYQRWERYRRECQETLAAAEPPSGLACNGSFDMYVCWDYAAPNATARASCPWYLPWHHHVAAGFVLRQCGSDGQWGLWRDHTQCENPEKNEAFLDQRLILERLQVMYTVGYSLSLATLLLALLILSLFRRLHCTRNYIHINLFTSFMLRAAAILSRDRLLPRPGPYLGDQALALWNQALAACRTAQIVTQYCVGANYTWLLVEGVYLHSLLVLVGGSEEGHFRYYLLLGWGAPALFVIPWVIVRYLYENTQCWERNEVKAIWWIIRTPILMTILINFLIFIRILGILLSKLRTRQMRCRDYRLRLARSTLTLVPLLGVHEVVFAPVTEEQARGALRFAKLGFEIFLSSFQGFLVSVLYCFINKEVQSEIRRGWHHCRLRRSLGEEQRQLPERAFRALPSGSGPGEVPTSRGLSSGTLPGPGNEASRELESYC
Kind of experiment: competition.

Experiment [2] deals with T1, human GIP receptor (GIPR) (human), ….
The target is the same in experiment [3]. As to the kind of experiment: competition.
The target is the same in experiment [4]. As to the kind of experiment: competition.
The target is the same in experiment [5]. Kind of experiment: competition, 125I-GIP(1-30)NH2.
Experiment [6] has the same target. Kind of experiment: competition, 125I-GIP(1-42).
The target is the same in experiment [7]. Kind of experiment: competition, 125I-GIP(3-30)NH2.
The target is the same in experiment [8]. Kind of experiment: competition, 125I-GIP(2-30)NH2.
The target is the same in experiment [9].
The target is the same in experiment [10]. As to the kind of experiment: other, Schild cAMP.
The target is the same in experiment [11]. As to the kind of experiment: competition, 125I-hGIP.

For the molecule EGTFISDYSIAMDKIHQQDFVNWLLAQK [GIP(3-30)NH2], the IC50 in [1] was determined as 3.4 nM; in [3] it was 4.4 nM; in experiment [4], 0.76 nM. Further, the Ki was found to be 2.3 nM in [1] and 14.9 nM in [2].

On to FISDYSIAMDKIHQQDFVNWLLAQK (not fully specified (C-terminus)) [GIP(6-30)NH2], for which the IC50 is 1060 nM in experiment [5], 370 nM in experiment [7] and 340 nM in experiment [8]. Moreover, the Ki in experiment [6] came out at 347 nM.

With AEGTFISDYSIAMDKIHQQDFVNWLLAQK (not fully specified (C-terminus)) [GIP(2-30)NH2], the half-inhibitory concentration (IC50) in experiment [5] is 26 nM; in [7], 7.7 nM; in [8], 2.7 nM. Also, in [6], the inhibition constant (Ki) amounted to 14.3 nM.

Molecule SDYSIAMDKIHQQDFVNWLLAQK (not fully specified (C-terminus)) [GIP(8-30)NH2] gave an inhibition constant (Ki) in experiment [6] of 79 nM.

In turn, GTFISDYSIAMDKIHQQDFVNWLLAQK (not fully specified (C-terminus)) [GIP(4-30)NH2] yielded an inhibitory constant (Ki) in [6] of 21.5 nM.

As to EGTFISDYSIAMDKIHQQDFVNWLLAQK [hGIP(3-30)], the half-maximal inhibitory concentration (IC50) in experiment [1] turned out to be 16 nM. Moreover, the Ki in experiment [9] worked out at 15 nM.

In [6], DYSIAMDKIHQQDFVNWLLAQK (not fully specified (C-terminus)) [GIP(9-30)NH2] displayed an inhibition constant Ki of 307 nM.

EGTFISDYSIAMEKIAQQDFVNWLLAQK [hGIP(3-30)D15E H18A]: the Ki in experiment [10] came out at 7.9 nM.

Consider EGTFISDYSIAMDKIAQQDFVNWLLAQK [hGIP(3-30)H18A], for which, in experiment [10], the Ki turned out to be 35 nM.

In [10], EGTFISDYSIAMDAIAQQDFVNWLLAQK [hGIP(3-30)K16A H18A] had an inhibition constant (Ki) of 15 nM.

Consider TFISDYSIAMDKIHQQDFVNWLLAQK (not fully specified (C-terminus)) [GIP(5-30)NH2], for which the figures for the Ki in [10] and in experiment [6] were 15.2 nM and 5.9 nM, respectively.

EGTFISDYSIAMDKIKQQDFVNWLLAQK [hGIP(3-30)H18K]: in [10], the Ki is 37 nM. The 50% inhibitory concentration (IC50) in experiment [11] came out at 7.8 nM.
